Reference: publication PMC9701186 (Nature Communications, 2022)

Key:
[1] = target: Aigai virus strain Pentalofos GP38 (Aigai virus, strain Pentalofos, UniProt A0A2P1JMM7, strain); test: BLI; […]; antibody (1 µg/mL) […] (AHC) sensors; […]; 300 s association, 600 s dissociation; global 1:1 fit; conditions: both partners purified
[2] = target: Aigai virus strain Pentalofos GP38 (Aigai virus, strain Pentalofos, UniProt A0A2P1JMM7, strain); test: BLI; […]; mAb (1 µg/mL) […] (AHC) sensors; […]; 1× Octet kinetics buffer; global 1:1 fit; conditions: both partners purified

| Binder | binding result [1] | binding result [2] |
| --- | --- | --- |
| human chimeric 13G8 mAb (c13G8) (antibody, V domains shown, copies: 2 + 2) VH: DVQLQQSGPGLVAPSQSLSITCTVSGFSLTNYGIHWVRQPPGKGLEWLGVIWAGGYTKYNSALMSRLSMSKDNSKSQVFLKMNSLQTDDTAMYYCARDEVRRDYYAMDHWGQGTTVTVSS VL: DIQMTQSPAILSASPGEKVTMTCWASSGVSYMHWYQQKPGSSPKPWIFATSNLASGVPARFSGSGSGTSYSLTISRVEAEDAATYYCQQWSFNPLTFGAGTKLEIK | no binding (tested: 100nM) | – |
| CC5-17 mAb (antibody, V domains shown, copies: 2 + 2) VH: EVQLVQSGAEVKKPGESLRISCKGSGYSFTSYWIGWVRQMPGKGLEWMGIIYPGDSDTRYSPSFQGQVTISADKSISTAYLQWTSLKASDTAMYYCARQLGGSSFGNYYDSGSYYTAAYWGQGTLVTVSS VL: DIQMTQSPSSLSASVGDRVTITCRASQSINNYLNWYQQKPGKAPKLLIYAASTLQSGVPSRFSGSGSGTDFTLTISSLQPEDFASYYCQQSYRGTFGQGTKVEFK | no binding (tested: 100nM) | – |
| human chimeric 13G8 mAb (c13G8) (antibody, V domains shown, source: Expi293 cells, purified (mAb Select Sure column)) VH: DVQLQQSGPGLVAPSQSLSITCTVSGFSLTNYGIHWVRQPPGKGLEWLGVIWAGGYTKYNSALMSRLSMSKDNSKSQVFLKMNSLQTDDTAMYYCARDEVRRDYYAMDHWGQGTTVTVSS VL: DIQMTQSPAILSASPGEKVTMTCWASSGVSYMHWYQQKPGSSPKPWIFATSNLASGVPARFSGSGSGTSYSLTISRVEAEDAATYYCQQWSFNPLTFGAGTKLEIK | – | no binding (tested: up to 20.0 nM GP38) |
| CC5-17 mAb (antibody, V domains shown) VH: EVQLVQSGAEVKKPGESLRISCKGSGYSFTSYWIGWVRQMPGKGLEWMGIIYPGDSDTRYSPSFQGQVTISADKSISTAYLQWTSLKASDTAMYYCARQLGGSSFGNYYDSGSYYTAAYWGQGTLVTVSS VL: DIQMTQSPSSLSASVGDRVTITCRASQSINNYLNWYQQKPGKAPKLLIYAASTLQSGVPSRFSGSGSGTDFTLTISSLQPEDFASYYCQQSYRGTFGQGTKVEFK | – | no binding (tested: up to 20.0 nM GP38) |
